Test results: article PMC5264588, “ER residency of the ceramide phosphoethanolamine synthase SMSr relies on homotypic oligomerization mediated by its SAM domain” (Scientific Reports, 2017)
Residue numbers refer to the chain shown, from its start. Numbers in names are those of the source. Where “and” joins values, the source holds several entries; their conditions need not be identical. Equal values may be shown once.

B1: V5/His6-tagged SMSrΔSAM (domain or fragment, human, UniProt Q96LT4 79-415, looked up)
chain: HIDVLEEMGYNSDSPMGSMTPFISALQSTDWLCNGELSHDCDGPITDLNSDQYQYMNGKNKHSVRRLDPEYWKTILSCIYVFIVFGFTSFIMVIVHERVPDMQTYPPLPDIFLDSVPRIPWAFAMTEVCGMILCYIWLLVLLLHKHRSILLRRLCSLMGTVFLLRCFTMFVTSLSVPGQHLQCTGKIYGSVWEKLHRAFAIWSGFGMTLTGVHTCGDYMFSGHTVVLTMLNFFVTEYTPRSWNFLHTLSWVLNLFGIFFILAAHEHYSIDVFIAFYITTRLFLYYHTLANTRAYQQSRRARIWFPMFSFFECNVNGTVPNEYCWPFSKPAIMKRLIG
notes: SMSr (SAMD8), human, UniProt Q96LT4, without the first 78 N-terminal residues (SAM domain deleted); also called SMSrΔSAM-V5; SAM-domain truncation mutant; source: HeLa, transfected, in detergent extract; not shown: V5, C-terminal, kept; His6, C-terminal, kept
B2: V5/His6-tagged SMSr (enzyme, human, UniProt Q96LT4 1-415, looked up)
chain: MAGPNQLCIRRWTTKHVAVWLKDEGFFEYVDILCNKHRLDGITLLTLTEYDLRSPPLEIKVLGDIKRLMLSVRKLQKIHIDVLEEMGYNSDSPMGSMTPFISALQSTDWLCNGELSHDCDGPITDLNSDQYQYMNGKNKHSVRRLDPEYWKTILSCIYVFIVFGFTSFIMVIVHERVPDMQTYPPLPDIFLDSVPRIPWAFAMTEVCGMILCYIWLLVLLLHKHRSILLRRLCSLMGTVFLLRCFTMFVTSLSVPGQHLQCTGKIYGSVWEKLHRAFAIWSGFGMTLTGVHTCGDYMFSGHTVVLTMLNFFVTEYTPRSWNFLHTLSWVLNLFGIFFILAAHEHYSIDVFIAFYITTRLFLYYHTLANTRAYQQSRRARIWFPMFSFFECNVNGTVPNEYCWPFSKPAIMKRLIG
notes: SMSr (SAMD8), ceramide phosphoethanolamine synthase, human, UniProt Q96LT4; the cDNA was PCR amplified and cloned with a C-terminal V5/His6 tag; also called SMSr-V5; SAMD8; source: HeLa, transfected (pcDNA3.1/V5-His TOPO), in detergent extract; not shown: V5, C-terminal, kept; His6, C-terminal, kept
B3: HA-tagged SMSr (enzyme, human, UniProt Q96LT4 1-415, looked up)
chain: B2 chain
notes: SMSr (SAMD8), ceramide phosphoethanolamine synthase, human, UniProt Q96LT4; also called SMSr-HA; full-length SMSr-HA; source: HeLa (wild-type or SMSr-/-), transfected, in detergent extract; not shown: HA, C-terminal, kept
B4: HA-tagged SMSr^L62E/G63D/K66E (SMSr^OD) (enzyme, human, UniProt Q96LT4 1-415, looked up)
chain: B2 chain with L62E, G63D, K66E
notes: SMSr (SAMD8), human, UniProt Q96LT4, with L62E, G63D and K66E; also called oligomerization-defective triple mutant; source: HeLa (wild-type or SMSr-/-), transfected, in detergent extract; not shown: HA, C-terminal, kept
B5: HA-tagged SMSr^D348E (enzyme, human, UniProt Q96LT4 1-415, looked up)
chain: B2 chain with D348E
notes: SMSr (SAMD8), human, UniProt Q96LT4, with D348E; also called enzyme-dead SMSr; source: SMSr-/- HeLa, transfected, in detergent extract; not shown: HA, C-terminal, kept
B6: V5/His6-tagged SMSr expressed in yeast (enzyme, human, UniProt Q96LT4 1-415, looked up)
chain: B2 chain
notes: SMSr (SAMD8), human, UniProt Q96LT4; also called SMSr-V5; pYES2.1/SMSr-V5-His TOPO; source: Saccharomyces cerevisiae IAY11, transformed (pYES2.1/SMSr-V5-His TOPO), in lysate

Assays:
[1] = molecular target: the molecule itself; experiment: cross-linking; intact HeLa cells (wild-type or SMSr-/-) treated with DSP (0-50 μM, 15 min, RT), lysed with detergent and 10 mM NEM; anti-HA or anti-V5 immunoprecipitation or Ni-NTA, immunoblot against the same tag
[2] = molecular target: the molecule itself; experiment: SDS-resistant oligomers on SDS-PAGE of affinity-purified protein; HeLa cells transfected with one V5(/His6)-tagged construct; anti-V5 immunoprecipitates or Ni-NTA eluates, non-reducing SDS-PAGE, anti-V5 immunoblot; no cross-linker; oligomers mostly lost with 10 mM NEM in lysis or 100 mM DTT
V5/His6-tagged SMSr = molecular target: B2; experiment: co-IP; detergent extracts of HeLa cells co-transfected with HA-tagged and V5/His6-tagged constructs; anti-V5 immunoprecipitation, immunoblot with anti-V5 and anti-HA; non-reducing SDS-PAGE; no NEM named; conditions: partners not purified
[3] = molecular target: the molecule itself; experiment: cross-linking; yeast cells expressing V5/His6-tagged SMSr treated with DSP (0-50 μM, 15 min), lysed, anti-V5 immunoblot

| Binder | stoichiometry N [1] | further results |
| --- | --- | --- |
| B1 | 2 |  |
| B2 |  | stoichiometry N [2]: 3 and 6 |
| B3 | 3 and 6 | stoichiometry N (V5/His6-tagged SMSr): 3 and 6 |
| B4 | 6 and 3 and 2 |  |
| B5 | 6 and 3 |  |
| B6 |  | stoichiometry N [3]: 3 and 6 |
